Experimental data published in publication PMC5450713 (Toxins, 2017).

Tests used:
[1] = target: trypsin-treated Vip3Ag4 (complex of the ~65 kDa and ~21 kDa products of proteolysis) (Bacillus thuringiensis) (UniProt I6LPV9); assay: SEC; SEC of trypsin-treated recombinant Vip3Ag4 compared with unprocessed material; fractions of the major peak analysed by SDS PAGE
[2] = target: the molecule itself; assay: SEC-MALS; Superdex 200 10/300 Increase, 100 uL at 1.0 mg/mL, 20 mM TrisHCl, 300 mM NaCl, pH 8.0, 0.7 mL/min
[3] = target: the molecule itself; assay: SEC; Hi-Prep 16/60 Sephacryl S-300, 20 mM TrisHCl pH 8.0, 300 mM NaCl, 0.5 mL/min, calibrated with gel filtration standards; initial Vip3Ag4 preparation after nickel affinity

Row | Molecule | stoichiometry N [1] | stoichiometry N [2] | stoichiometry N [3]
1 | trypsin-treated Vip3Ag4 (complex of the ~65 kDa and ~21 kDa products of proteolysis) (from UniProt I6LPV9 1-182; I6LPV9 199-787) | 4 | – | –
2 | recombinant His-tagged Vip3Ag4 protein (natural protein, Bacillus thuringiensis, UniProt I6LPV9 1-787, looked up, Expected size with His-tag 91.38 kDa; also called Vip3Ag4 protoxin; unprocessed Vip3Ag4; source: E. coli BL21(DE3), pET28b, purified (Protino Ni-TED column, Sephacryl S-300 size exclusion); not shown: His tag, N-terminal, kept) MNKNNTKLNARALPSFIDYFNGIYGFATGIKDIMNMIFKTDTGGNLTLDEILKNQQLLNEISGKLDGVNGSLNDLIAQGNLNTELSKEILKIANEQNQVLNDVNNKLNAINTMLHIYLPKITSMLNDVMKQNYALSLQIEYLSKQLQEISDKLDVINVNVLINSTLTEITPAYQRMKYVNEKFEDLTFATETTLKVKKNSSPADILDELTELTELAKSVTKNDVDGFEFYLNTFHDVMVGNNLFGRSALKTASELIAKENVKTSGSEVGNVYNFLIVLTALQAKAFLTLTTCRKLLGLADIDYTFIMNEHLDKEKEEFRVNILPTLSNTFSNPNYAKAKGSNEDAKIIVEAKPGYALVGFEMSNDSITVLKAYQAKLKQDYQVDKDSLSEIVYGDMDKLLCPDQSEQIYYTNNIAFPNEYVITKITFTKKMNSLRYEATANFYDSSTGDIDLNKTKVESSEAEYSTLSASTDGVYMPLGIISETFLTPINGFGIVVDENSKLVNLTCKSYLREVLLATDLSNKETKLIVPPIGFISNIVENGNLEGENLEPWKANNKNAYVDHTGGVNGTKALYVHKDGEFSQFIGDKLKSKTEYVIQYIVKGKASILLKDEKNGDCIYEDTNNGLEDFQTITKSFITGTDSSGVHLIFNSQNGDEAFGENFTISEIRLSEDLLSPELINSDAWVGSQGTWISGNSLTINSNVNGTFRQNLSLESYSTYSMNFNVNGFAKVTVRNSREVLFEKNYPQLSPKDISEKFTTAANNTGLYVELSRFTSGGAINFRNFSIK | – | 4 | ~4
